Among the data in publication PMC8519809 (Cell Reports, 2021) are Kd values, retold here.

For orientation: Kd means a measure of binding affinity in units of concentration. A high value points to a looser complex.

The assay has as its target SARS-CoV-2 S-HexaPro protein (SARS-CoV-2, Wuhan-Hu-1 type, stabilised). Briefly: SPR. On the technique in general: In SPR one partner is held on a chip, and binding of the other changes the refractive index at the surface.

B1: Fab22 (Fab, V domains shown)
VH: EVQLQQPGPVLVKPGASVRMSCKASGYRITDNFMNWVKQSHGKSLEWIGIINPYNGGTKYNQKFKGKATLTVDTSSSTAYMELNSLTSEDSAVYYCTRVRGNDYHGRAMDYWGQGTSVTVSS
VL: DVVLTQTPLSLPVNIGDQASISCKSTKSLLNRDGFTFLDWYLQKPGQSPQLLIYLVSNRFSGVPDRFSGSGSGTDFTLKISRVEAEDLGVYYCFQSNYLFTFGSGTKLEIK
In turn, B1 yielded a Kd of 6.7 nM.
